Laboratory results taken from paper PMC10690772.

Biological target: ConCv5 KIKO 473T SOSIP soluble gp140 Env trimer (HIV-1 (clade C consensus))
Experiment: SEC; analytical size exclusion chromatography of 10 µg of the final purified protein pool

“ConCv5 KIKO 473T SOSIP soluble gp140 Env trimer (complex)” showed a stoichiometry N of 3.
